“And” between values parts separate entries of the source, which are not always exact repeats. Equal entries are not always repeated.
Columns and labels:
BanLec [1] = target: BanLec (Musa acuminata, UniProt O22321); assay: HPLC depletion assay of released gp120; type: binding; conditions: 2-AB labelled gp120 N-glycans, 0-50 μM BanLec
BanLec [2] = target: BanLec (UniProt Q8L5H4); assay: ion mobility MS
BanLec [3] = target: BanLec (UniProt Q8L5H4); assay: SEC-MALS
BanLec [4] = target: BanLec (UniProt Q8L5H4); assay: native MS
BanLec [5] = target: BanLec (UniProt Q8L5H4); assay: SAXS
BanLec D38G = assay: native MS
BanLec D133G = assay: native MS
BanLec Y46K = assay: native MS
HIV fusion to HeLa cells = conditions: ref Swanson et al., 2010; cited from earlier work
BG505 SOSIP.664 = assay: Negative-stain electron microscopy of BanLec with soluble Env trimer mimic; set-up: species or system HIV; conditions: incubation of BanLec with BG505 SOSIP.664

CC(=O)N[C@H]1[C@H](O[C@H]2[C@H](O)[C@@H](NC(C)=O)C(O)O[C@@H]2CO)O[C@H](CO)[C@@H](O[C@@H]2O[C@H](CO[C@H]3O[C@H](CO[C@H]4O[C@H](CO)[C@@H](O)[C@H](O)[C@@H]4O[C@H]4O[C@H](CO)[C@@H](O)[C@H](O)[C@@H]4O)[C@@H](O)[C@H](O[C@H]4O[C@H](CO)[C@@H](O)[C@H](O)[C@@H]4O[C@H]4O[C@H](CO)[C@@H](O)[C@H](O)[C@@H]4O)[C@@H]3O)[C@@H](O)[C@H](O[C@H]3O[C@H](CO)[C@@H](O)[C@H](O)[C@@H]3O[C@H]3O[C@H](CO)[C@@H](O)[C@H](O)[C@@H]3O[C@H]3O[C@H](CO)[C@@H](O)[C@H](O)[C@@H]3O)[C@@H]2O)[C@@H]1O (some centres unmarked) [Man9]
depletion of glycan upon addition of BanLec (BanLec [1]): decreased considerably

BanLec (from UniProt Q8L5H4 1-141) (natural protein)
stoichiometry N (BanLec [2]): 4
stoichiometry N (BanLec [3]): 4
stoichiometry N (BanLec [4]): 4
stoichiometry N (BanLec [5]): 4

BanLec D38G (natural protein)
stoichiometry N (BanLec D38G): 4

BanLec D133G (natural protein)
stoichiometry N (BanLec D133G): 4

BanLec Y46K (natural protein)
stoichiometry N (BanLec Y46K): 2 and 4

Man5
depletion of glycan upon addition of BanLec (BanLec [1]): not depleted

B1: BanLec: recombinant tetrameric plant (banana) lectin with anti-HIV activity, expressed in E. coli (protein)
chain: MNGAIKVGAWGGNGGSAFDMGPAYRIISVKIFSGDVVDAVDVTFTYYGKTETRHFGGSGGTPHEIVLQEGEYLVGMKGEFGNYHGVVVVGKLGFSTNKKSYGPFGNTGGTPFSLPIAAGKISGFFGRGGDFIDAIGVYLEP
modifications: left off: polyhistidine tag, N-terminal, cleaved
IC50, inhibition of HIV fusion to HeLa cells (HIV fusion to HeLa cells): low-nanomolar range
effect on soluble Env trimer mimic by negative-stain EM (BG505 SOSIP.664): aggregation

— publication PMC5556678 (Structure (London, England : 1993), 2017)
